Experimental data published in the supplement of paper PMC9732359.
± gives the uncertainty stated by the source.

Assay: protein stability index of a GFP-peptide fusion (yeast GPS) (PSI 1-4); higher = more stable; sorted into four equal gates, so the index is relative within each strain
Outline: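 The protein stability index combines read frequencies across sorting gates, each weighted by its gate number and then summed. To obtain those frequencies, a pooled yeast library of GFP fusions to tiled 17-residue yeast protein peptides, on a plasmid also expressing Cherry, was grown to mid-log phase in leucine-free medium. The cells were sorted into four equal gates by GFP/Cherry ratio before plasmid amplification by PCR and Illumina sequencing.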

Sequence	protein stability index (doa10∆)	protein stability index (pdr5∆)	protein stability index (san1∆)	protein stability index (ubr1∆)
QNSKFLKVNVTLDNPLL [YJL039C/NUP192]	2.72 ± 0.088	2.57 ± 0.083	2.91 ± 0.058	2.36 ± 0.044
QDKDAIRKQPDDIINND [SIR2]	2.48 ± 0.089	2.63 ± 0.049	2.82 ± 0.078	2.89 ± 0.061
YLKVSEEEIKKFDSRIR [PRP8]	2.9 ± 0.072	3.08 ± 0.083	2.78 ± 0.066	3.15 ± 0.061
QVRKDLGNVIVPNILSL [NUT1]	2.23 ± 0.1	2.55 ± 0.088	2.46 ± 0.093	2.62 ± 0.07
VGDIVDIKANGSIQKGM [RPL21A]	2.35 ± 0.072	1.9 ± 0.065	1.62 ± 0.089	2.19 ± 0.047
KTAYSIYLSQNELTDAI [RPN1]	2.48 ± 0.037	2.28 ± 0.038	2.71 ± 0.037	2.08 ± 0.023
NYHPNASITPYKLVNKN [RPN4]	1.84 ± 0.063	2.38 ± 0.078	2.59 ± 0.083	2.05 ± 0.068
GVANTDTAGEESQQQDE [SWI3]	3.45 ± 0.1	3.55 ± 0.085	3.33 ± 0.062	3.43 ± 0.086
KFNKSKAKFTSLAVRSL [YCS4]	2.09 ± 0.065	2.01 ± 0.056	1.96 ± 0.067	1.8 ± 0.039
VKQLENVSSNIVKNAEQ [RPS20]	2.58 ± 0.092	2.84 ± 0.081	3.15 ± 0.049	2.86 ± 0.056
RAKKTRALRRALTKFEA [RPL35A]	–	–	–	3.11 ± 0.15
ISLIPELSVVLSGIIQD [RRI2]	1.75 ± 0.077	1.76 ± 0.09	1.96 ± 0.12	1.99 ± 0.064
GNKKYRALRIETGNFSW [RPS8A]	2.87 ± 0.038	3.15 ± 0.044	3.14 ± 0.036	2.85 ± 0.03
ITKMLASDESLLRYGGA [RPN2]	3.28 ± 0.11	3.41 ± 0.17	3.23 ± 0.11	3.82 ± 0.22
SVRGAIVGPDLAVLALV [RPS6A]	1.18 ± 0.041	1.46 ± 0.06	1.14 ± 0.11	1.38 ± 0.045
FDQAGKKVSRRNARATR [RPL13A]	2.51 ± 0.073	3.36 ± 0.057	1.92 ± 0.12	2.34 ± 0.067
ESKMRQQEAKYRNNEPA [YDL088C/ASM4]	3.13 ± 0.074	3.12 ± 0.063	2.84 ± 0.075	2.88 ± 0.059
LKWVAVVPDLGHLNGHT [SSN2]	3.12 ± 0.07	3.13 ± 0.058	3.1 ± 0.048	3.16 ± 0.054
KIPEREEKSNEVKTPKI [SIR4]	–	3.24 ± 0.21	3.46 ± 0.21	3.44 ± 0.15
SIGSDILTAEKMRGNGN [RRP4]	3.21 ± 0.097	3.39 ± 0.09	3.38 ± 0.05	3.32 ± 0.062
IRIYDLGKKKATVDEFP [RPL10]	1.47 ± 0.054	1.51 ± 0.048	1.21 ± 0.098	1.29 ± 0.035
SVQNLDQLLTDLIETSF [NUT1]	2.9 ± 0.15	2.64 ± 0.1	2.94 ± 0.066	2.85 ± 0.11
PFKVFLDIGLQRTTTGA [RPL5]	1.63 ± 0.07	2.04 ± 0.074	2.23 ± 0.076	1.53 ± 0.053
AFVKDMQVYLVPIERVA [RPC37]	1.18 ± 0.13	1.39 ± 0.27	1.39 ± 0.19	1.27 ± 0.21
LSDRITGNFIIPSGNVW [PRP8]	2.76 ± 0.1	3.1 ± 0.087	2.84 ± 0.064	2.9 ± 0.065
LIQSTEFPSITSSVILG [YOR098C/NUP1]	3.16 ± 0.12	3.44 ± 0.11	2.11 ± 0.13	3.17 ± 0.079
SGGGDSEVQRTMLELLN [RPT6]	3.22 ± 0.18	2.42 ± 0.19	–	3.42 ± 0.066

Sequence	protein stability index (doa10∆)	protein stability index (pdr5∆)	protein stability index (san1∆)	protein stability index (ubr1∆)
PGHVNFMDETAVALAAS [SNU114]	2.4 ± 0.062	2.7 ± 0.1	2.29 ± 0.073	2.34 ± 0.066
PSEIPDAHKAEQEDIIE [SWI3]	–	3.29 ± 0.14	3.46 ± 0.12	3.05 ± 0.17
NHVMPLKPVDKLKPMNI [SIN4]	2.84 ± 0.1	2.93 ± 0.083	2.83 ± 0.087	2.94 ± 0.094
PDCKIKIAHGTTTLAFR [PRE2]	2.64 ± 0.077	2.72 ± 0.056	2.65 ± 0.066	2.71 ± 0.064
LAGKRGPKSGSTMGTPT [PGD1]	3.35 ± 0.061	2.95 ± 0.05	2.6 ± 0.096	3.19 ± 0.046
VDKALIAEIKKTPLLKQ [RPL6A]	2.64 ± 0.088	2.12 ± 0.28	1.92 ± 0.16	–
HKCDELITLFNKGELET [RPO31]	2.72 ± 0.095	3.15 ± 0.07	2.98 ± 0.094	2.92 ± 0.1
KFSDLKFILQILQILNL [YML103C/NUP188]	3.05 ± 0.15	2.12 ± 0.29	3.48 ± 0.13	–
KTDLELLVERLKEDDSS [RPN1]	3.18 ± 0.11	3.3 ± 0.14	3.05 ± 0.1	3.18 ± 0.17
LLEFFELVFSKGVYLIL [YML103C/NUP188]	2.13 ± 0.087	2.4 ± 0.093	1.97 ± 0.093	2.26 ± 0.076
LEIRNKICSSEMINEQK [RGR1]	3.02 ± 0.11	2.91 ± 0.14	3.01 ± 0.15	2.9 ± 0.12
LCRQGHNMLNLLIHRKG [PRP8]	2.33 ± 0.061	2.55 ± 0.068	2.31 ± 0.091	2.23 ± 0.041
EFMAGFNIISMTLKEMY [SMC4]	–	2.83 ± 0.24	3.21 ± 0.11	3.21 ± 0.089
LNNNNNNNNTTTTTTTT [SWI1]	3.06 ± 0.062	3.27 ± 0.062	3.33 ± 0.081	3.22 ± 0.054
RIISGDQITKMKDRLVE [RPN9]	–	–	3.34 ± 0.26	2.69 ± 0.19
LVSNPHEIYGSMPLEQL [SRB4]	3.01 ± 0.12	2.26 ± 0.065	3.1 ± 0.19	1.89 ± 0.1
LTKAQKYLDQVLDHQRA [RPL17B]	3 ± 0.096	2.96 ± 0.092	3.03 ± 0.079	2.98 ± 0.042
NELTDAIALAVRLGEED [RPN1]	2.98 ± 0.096	3.27 ± 0.096	–	2.7 ± 0.095
EDAKLKTDLELLVERLK [RPN1]	1.24 ± 0.074	1.19 ± 0.049	1.29 ± 0.14	1.51 ± 0.073
QWLIMLGICTHLGCVPI [RIP1]	1.69 ± 0.067	1.37 ± 0.078	1.29 ± 0.14	1.46 ± 0.089
RAQLENEIEGKNEETPQ [RPC25]	–	3.23 ± 0.14	2.47 ± 0.2	3.38 ± 0.078
RAGMTHEDEKLIPTIFR [PRP8]	3.19 ± 0.085	3.28 ± 0.076	3.15 ± 0.049	3.19 ± 0.05
LNKDSTNEFVGSPSLTS [NUT1]	2.96 ± 0.062	3.18 ± 0.057	2.93 ± 0.044	2.9 ± 0.042
LDESSEQKNTAKEELNG [YIL149C/MLP2]	3.1 ± 0.15	2.95 ± 0.27	3.21 ± 0.072	3.22 ± 0.087
NLNTDKLKNNASRSQLE [YJL039C/NUP192]	2.22 ± 0.13	2.69 ± 0.065	2.81 ± 0.11	2.69 ± 0.064
RQCFQDNCCDFKVRTNL [MED1]	3.28 ± 0.053	3.23 ± 0.063	3.42 ± 0.04	3.21 ± 0.038
